Laboratory results from IntAct's records for PubMed 18385733.

B1: Mediator of RNA polymerase II transcription subunit 15 (Saccharomyces cerevisiae), P19659 (parent)
chain: MSAAPVQDKDTLSNAERAKNVNGLLQVLMDINTLNGGSSDTADKIRIHAKNFEAALFAKSSSKKEYMDSMNEKVAVMRNTYNTRKNAVTAAAANNNIKPVEQHHINNLKNSGNSANNMNVNMNLNPQMFLNQQAQARQQVAQQLRNQQQQQQQQQQQQRRQLTPQQQQLVNQMKVAPIPKQLLQRIPNIPPNINTWQQVTALAQQKLLTPQDMEAAKEVYKIHQQLLFKARLQQQQAQAQAQANNNNNGLPQNGNINNNINIPQQQQMQPPNSSANNNPLQQQSSQNTVPNVLNQINQIFSPEEQRSLLQEAIETCKNFEKTQLGSTMTEPVKQSFIRKYINQKALRKIQALRDVKNNNNANNNGSNLQRAQNVPMNIIQQQQQQNTNNNDTIATSATPNAAAFSQQQNASSKLYQMQQQQQAQAQAQAQAQAQAQAQAQAQAAQAAQAQAQAQAQAQAQAQAQAQAQAQAQAQAQAQAQAHAQHQPSQQPQQAQQQPNPLHGLTPTAKDVEVIKQLSLDASKTNLRLTDVTNSLSNEEKEKIKMKLKQGQKLFVQVSNFAPQVYIITKNENFLKEVFQLRIFVKEILEKCAEGIFVVKLDTVDRLIIKYQKYWESMRIQILRRQAILRQQQQMANNNGNPGTTSTGNNNNIATQQNMQQSLQQMQHLQQLKMQQQQQQQQQQQQQQQQQQQQQQQHIYPSSTPGVANYSAMANAPGNNIPYMNHKNTSSMDFLNSMENTPKVPVSAAATPSLNKTINGKVNGRTKSNTIPVTSIPSTNKKLSISNAASQQPTPRSASNTAKSTPNTNPSPLKTQTKNGTPNPNNMKTVQSPMGAQPSYNSAIIENAFRKEELLLKDLEIRKLEISSRFKHRQEIFKDSPMDLFMSTLGDCLGIKDEEMLTSCTIPKAVVDHINGSGKRKPTKAAQRARDQDSIDISIKDNKLVMKSKFNKSNRSYSIALSNVAAIFKGIGGNFKDLSTLVHSSSPSTSSNMDVGNPRKRKASVLEISPQDSIASVLSPDSNIMSDSKKIKVDSPDDPFMTKSGATTSEKQEVTNEAPFLTSGTSSEQFNVWDWNNWTSAT
partner: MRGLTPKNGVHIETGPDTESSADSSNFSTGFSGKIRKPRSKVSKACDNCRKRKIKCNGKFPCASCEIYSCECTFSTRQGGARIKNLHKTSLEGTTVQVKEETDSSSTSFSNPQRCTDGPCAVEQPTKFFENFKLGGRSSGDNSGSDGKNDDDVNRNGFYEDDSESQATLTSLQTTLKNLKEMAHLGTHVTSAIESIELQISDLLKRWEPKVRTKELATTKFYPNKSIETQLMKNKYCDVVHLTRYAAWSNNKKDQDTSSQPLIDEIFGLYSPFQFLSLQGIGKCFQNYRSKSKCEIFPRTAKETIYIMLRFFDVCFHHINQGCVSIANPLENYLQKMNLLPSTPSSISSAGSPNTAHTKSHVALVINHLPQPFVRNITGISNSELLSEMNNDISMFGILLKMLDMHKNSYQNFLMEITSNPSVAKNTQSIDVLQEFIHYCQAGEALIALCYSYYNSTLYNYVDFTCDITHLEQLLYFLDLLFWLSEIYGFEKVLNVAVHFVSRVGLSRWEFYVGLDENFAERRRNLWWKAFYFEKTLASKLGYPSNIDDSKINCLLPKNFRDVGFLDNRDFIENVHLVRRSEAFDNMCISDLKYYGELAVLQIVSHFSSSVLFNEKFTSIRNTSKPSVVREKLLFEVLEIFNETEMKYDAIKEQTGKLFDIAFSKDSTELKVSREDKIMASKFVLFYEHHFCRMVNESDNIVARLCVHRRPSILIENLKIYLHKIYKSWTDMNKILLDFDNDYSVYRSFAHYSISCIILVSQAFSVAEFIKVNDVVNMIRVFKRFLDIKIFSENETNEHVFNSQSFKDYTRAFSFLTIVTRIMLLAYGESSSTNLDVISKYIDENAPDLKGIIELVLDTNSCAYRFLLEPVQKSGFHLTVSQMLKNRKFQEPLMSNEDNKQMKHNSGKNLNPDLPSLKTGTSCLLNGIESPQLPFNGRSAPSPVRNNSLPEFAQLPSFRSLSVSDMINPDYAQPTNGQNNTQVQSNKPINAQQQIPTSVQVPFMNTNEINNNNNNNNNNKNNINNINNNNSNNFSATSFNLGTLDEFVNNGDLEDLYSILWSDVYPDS

Variants of: B1
Settings: with pdr1_yeast PDR1, P12383

| Variant | effect of a mutation on the interaction |
| --- | --- |
| S69D | disrupting interaction |
| K63Q | disrupting interaction |
| V27D | disrupting interaction |
| R78L | disrupting interaction |

The next lines start with the values.

| effect of a mutation on the interaction | Variant |
| --- | --- |
| disrupting interaction | M77E |
| disrupting interaction | V76D |
